# B1: Hairpin Ribozyme (parent)
# chain: GUCCUCUUUCACGUGCGCGUGAAAGAGAGAAGUGAACCAGAGAAACACACGUUGUGGUAUAUUACCUGGUA
# Variants of: B1
# Assay: self-cleavage, relative activity (ratio to wild type); higher = more cleavage; co-transcriptional
row,Variant,self-cleavage
1,GUCCUCUUUCACGUACGCCUGAAAGAGAGAAGUGAACCAGAGAAACACACGUUGUGGUAUAUUACCUGGUA [G15A G19C],0.856
2,GUCCUCUUUCACGUGCGCGUGAAAGAGAGAAGUAAACCAGAGAAACACACAUUGUGGUAUAUUACCUGGUA [G34A G51A],1.28
3,GUACUCUUUCACGUGCGCGUGAAAGAGAGAAGUGAACCAGAGAAACACACGUUGUGGUACAUUACCUGGUA [C3A U60C],1.07
4,GUCCUCUUUCACGUGCGCGUGAAAGAGAGAAGUGAACCAGAGAAACACACGUUGUGCUAUAUUACCUGGUC [G57C A71C],0.356
5,GUCCUCUUUCACGUGCGCGUGAAAGAGAGAAGCGACCCAGAGAAACACACGUUGUGGUAUAUUACCUGGUA [U33C A36C],0.199
6,GUCCUCUGUCACGAGCGCGUGAAAGAGAGAAGUGAACCAGAGAAACACACGUUGUGGUAUAUUACCUGGUA [U8G U14A],0.554
7,GUCCUCUUUCACGUGCGCGUGAAAGAGAGAAGUGAACCAGAUAAACACACGUUGUGGUAUGUUACCUGGUA [G42U A61G],0.167
8,GUCCUCUUUCACGUGCGCGUGGAAGAGAGAAGUGAACCCGAGAAACACACGUUGUGGUAUAUUACCUGGUA [A22G A39C],0.475
9,GUCCUCUUUCACGUGCGCGUGAAAGAGAGAAGUGAACCAGAGAAGCACACGUUGUGGUAUAUUACCUGGGA [A45G U70G],0.137
10,GUCCUCUUUCACGUGCGCGUGAAAGAGAGAAGUGAACCAGACAAACACACGUUGUGGGAUAUUACCUGGUA [G42C U58G],0.289
11,GUCCUCUUUCGCGUGCGCGUGAAAGAGAGAAGUGAACCAGAGAAACACACGUUGUGGUAUAUUACCUUGUA [A11G G68U],0.143
12,GUCCUCUUUCACGUGCGCGUCAAAGAGAGAAGUGAACCAGAGAAACACACGUUGUGGUAUUUUACCUGGUA [G21C A61U],0.304
13,GUCCUCUUUCACGUGCGCGUGAAGGAGAGAAGUGAACCAGAGAAACACACGUUGUGGUAUAUUACCUCGUA [A24G G68C],0.232
14,GUCCUCUUUCACGUGCGCGUGGAAGAGAGAAGUGAACCAGAAAAACACACGUUGUGGUAUAUUACCUGGUA [A22G G42A],0.143
15,GUCCUCUUUCACGUGCGCGUGAAAGAGAGUAGUGAACCAGAGAAACACACGUUGUGGUCUAUUACCUGGUA [A30U A59C],0.153
16,GUGCUCUUUCACGUGCGCGUGAAAGAGAGAAGUGAACCAGAGAAACACACGUUGUGGUAUAUUACCAGGUA [C3G U67A],0.0949
17,GUCCUCUUUCACGUGCGCGUGACAGAGAGAAGUGAACCAGAGAAACACACGUUGUGGUAUACUACCUGGUA [A23C U62C],0.206
18,GUCCUCUUACACGUGCGCGUGAAAAAGAGAAGUGAACCAGAGAAACACACGUUGUGGUAUAUUACCUGGUA [U9A G25A],0.191
19,GUGCUCUUUCACGUGCGCGUGAAAGAGAGAAGUGAACAAGAGAAACACACGUUGUGGUAUAUUACCUGGUA [C3G C38A],0.119
20,GUCCUCUUUCACGUGCGAGUGAAAGAGAGAAGUGAACCAGAGAAACACACGUUGUGGUAUCUUACCUGGUA [C18A A61C],0.132
21,GUCCUCUUUCACGUGCGCGUGAAAGAGAGAAGUGAACCAGAGAAACAUACGUUGAGGUAUAUUACCUGGUA [C48U U55A],0.196
22,GCCCUCUUUCACGUGCGCGUGAAAGAGAGAAGUGAACCAGAGAAACACACGUUGUGGUGUAUUACCUGGUA [U2C A59G],0.173
23,GUCCUCUUUCACGUGCGCGUGAAAGAGAGAAGUGAACCAGAGAAACACACGUCGAGGUAUAUUACCUGGUA [U53C U55A],0.34
24,GUCCUCUCUCACGUGCGCGUGAAAGAGAGAAGUGAACCAGAGAAACACACGUUGUGGAAUAUUACCUGGUA [U8C U58A],0.552
25,GUCCUCUUUCACGUGCGCGUGACAGAGAGAAGUGAACCAGAGACACACACGUUGUGGUAUAUUACCUGGUA [A23C A44C],0.251
26,GUCCUCUUUCACGUACGCGUGAAAGAGAGAAGUGAACCAGAGAAACACACGUUGUGGUAUAUUGCCUGGUA [G15A A64G],0.528

row,Variant,self-cleavage
1,GUCCUCUUUCACGUGCGCGUGAAAGAGAGAAGUGAAUCAGAGAAACACACGUUGUGGUAUAUGACCUGGUA [C37U U63G],0.172
2,GUCCUCCUUCACGGGCGCGUGAAAGAGAGAAGUGAACCAGAGAAACACACGUUGUGGUAUAUUACCUGGUA [U7C U14G],0.723
3,GUCCUCUUUCACGUGCGUGUGAAAGAGAGAAGUGAACCAGAGAAACACACGUUGUGGUACAUUACCUGGUA [C18U U60C],1.28
4,GUCCUCAUUCACGUGCGCGUGAAAGAGAGAAGUGAACCAGAGAAACACACGUUGUGGUUUAUUACCUGGUA [U7A A59U],0.182
5,GUCCUCUUUCACGGUCGCGUGAAAGAGAGAAGUGAACCAGAGAAACACACGUUGUGGUAUAUUACCUGGUA [U14G G15U],0.796
6,GUCCUCUUUGACGUGCGCGUGAAAGAGAGAAGUUAACCAGAGAAACACACGUUGUGGUAUAUUACCUGGUA [C10G G34U],1.06
7,GUCCUCUUUCACGUGCGCGUGAAAGAGAGAAGUGAGCCAGAGUAACACACGUUGUGGUAUAUUACCUGGUA [A36G A43U],0.0504
8,GUCCUCUUUCACGUGCGCGUGAAAGAGAGAAGUGAACCAGAGAAACACACGUUGUGGUUUAUUACCCGGUA [A59U U67C],0.11
9,GUCCUCUUUCACGUGGGAGUGAAAGAGAGAAGUGAACCAGAGAAACACACGUUGUGGUAUAUUACCUGGUA [C16G C18A],1.03
10,GUCCUCUUUCACGUGUGCGUGGAAGAGAGAAGUGAACCAGAGAAACACACGUUGUGGUAUAUUACCUGGUA [C16U A22G],1
11,GUCCUCUUUCACGUACGCGUGAAAGAGAGAAGUGAACCAGAGAAACACACGUUGUGAUAUAUUACCUGGUA [G15A G57A],0.167
12,GUCCUCUUUCACGUGCGCGUGAAAGAGAGAAGUGAGCCAGAGAAACACACGUUGCGGUAUAUUACCUGGUA [A36G U55C],0.324
13,GUCCUCUUUCACGUGAGCGUGAAAGAGAGAAGUGAACCAGGGAAACACACGUUGUGGUAUAUUACCUGGUA [C16A A41G],0.818
14,GUCAUCUUUCACGUGCGCGUGAAAGAGAGAAGUGAACCAGAGUAACACACGUUGUGGUAUAUUACCUGGUA [C4A A43U],0.184
15,GUCCUCUUUCACGUGCGCGUGAAAGAGAGAAGUGAACCUGAGAAACACACGUGGUGGUAUAUUACCUGGUA [A39U U53G],0.179
16,GUCCUCUUUCACGUGCGCGUGAAAGAGAGAAGUGAACCAGAGAAACACACGGUCUGGUAUAUUACCUGGUA [U52G G54C],0.42
17,GUUCUCUUUCACGUGCGCGUGAAAGAGAGAAGUGAACCAGAGAAACUCACGUUGUGGUAUAUUACCUGGUA [C3U A47U],0.208
18,GUCCUCUUUCACGUGCGCGUGCAAGAGAGAAGUGAACCAGAGAAACACACGUUGUAGUAUAUUACCUGGUA [A22C G56A],0.165
19,GUCCUCUUUCACGUGCGCGUGAAAGAGAGAAGUGAACCAGCGAAACACACGUUGUUGUAUAUUACCUGGUA [A41C G56U],0.0688
20,GUCCUCUUUCACGUGCGAGUGAAAGAGAGAAGUGAACCUGAGAAACACACGUUGUGGUAUAUUACCUGGUA [C18A A39U],0.345
21,GUCCUCUAACACGUGCGCGUGAAAGAGAGAAGUGAACCAGAGAAACACACGUUGUGGUAUAUUACCUGGUA [U8A U9A],0.793
22,GUCCUAUUUCACGUGCGCGUGAAAGAGAGAAGUGAACCAAAGAAACACACGUUGUGGUAUAUUACCUGGUA [C6A G40A],0.236
23,GUCCUCUUUCACGUGCGCGUGAAAGAGAGAAGUGAACCAGAGAAACACGCGUUGUGGUUUAUUACCUGGUA [A49G A59U],0.131
24,GUCCUCUUUCACGUGCGCGUGAAAGAGAGAAGUGAACCUGAGAAACACACAUUGUGGUAUAUUACCUGGUA [A39U G51A],0.585
25,GUCCUCUUUCACGUGCGCGUGAAAGAGAGGAGUGAACCAGAGAAACACACGAUGUGGUAUAUUACCUGGUA [A30G U52A],0.112
26,GUCCUCUUUCACGUGCGCGUGAAUGAGAGAAGUGAACCAGAGAAACACACGUUGUGGUAUAGUACCUGGUA [A24U U62G],0.131

row,Variant,self-cleavage
1,GUCCUCUUUCACGUGCGCGUGAAAGAGAGAAGUGAAUCAGAGAAACACACGUUGUGGUAUAUUACCUGGUC [C37U A71C],0.93
2,GUCCUCUUUCACGUGCGCGUGAAAGAGAGAAGUGAAGCAGAGAGACACACGUUGUGGUAUAUUACCUGGUA [C37G A44G],0.185
3,GUCCUCUUUCACGUGCGCGUGAAAGAGAGAAGUGAACCCGAGAAACACACGUUGUGGUAUAUUACCUGGUG [A39C A71G],0.248
4,GUCCUCUUGCACGUGCGCGUGAAAGAGAGAAGUGAACCAGAGAAACACACGUUAUGGUAUAUUACCUGGUA [U9G G54A],0.418
5,GUCCUCUUUCACGUGCGCGUGAAUGAGAGAAGUGAAACAGAGAAACACACGUUGUGGUAUAUUACCUGGUA [A24U C37A],0.304
6,GUCCUCUUUCACGUGCGCGUGAAAGAGAGAAGUGAACCAGAGAAUCCCACGUUGUGGUAUAUUACCUGGUA [A45U A47C],0.132
7,GUCCUCUUUCACGUGCGCGUGAGAGAGAGAAGUAAACCAGAGAAACACACGUUGUGGUAUAUUACCUGGUA [A23G G34A],1.12
8,GUCCUCUUUCACGUGCGCGUGAAAGAGAGAAGUGAACCAGACAAACACACGUUGUGCUAUAUUACCUGGUA [G42C G57C],0.0624
9,GUCCCCUUUCACGUGCGCGUGAAAGAGAGAAGUGAACCAGAGAAACACACGUUGUGCUAUAUUACCUGGUA [U5C G57C],0.0878
10,GUCCUCUUUCACGUGCGCGUGAAAGAGAGAAGUGAACCAGAGAAACACACGUUGUUGUAUAUUACCUUGUA [G56U G68U],0.276
11,GUCCUCUUUCACGUGCGCGUGAAAGAGAGAAGUGAACCAGAGAAACACUCGUUGUGGUAUAUUGCCUGGUA [A49U A64G],0.145
12,GUCCUCUUUCACGUGCGCGUGCAAGAGAGAAGUGAACCAGAGGAACACACGUUGUGGUAUAUUACCUGGUA [A22C A43G],0.249
13,GACUUCUUUCACGUGCGCGUGAAAGAGAGAAGUGAACCAGAGAAACACACGUUGUGGUAUAUUACCUGGUA [U2A C4U],0.0895
14,GUCCUCUUUCACGUGCGCGUAAAAGAGAGAAGUGAACCAGAGAAACACACGUUGUGCUAUAUUACCUGGUA [G21A G57C],0.193
15,GUCCUCUUUCACGUGCGCGUGAAAGAGAGAAGAGAACCAGAGAAACACACGUUGUGGUAUAUUAGCUGGUA [U33A C65G],0.225
16,GUCCUCUUUCACGUGCGCGUUAAAGAGAGAAGUGAACCAGAGAAACACACGUUGUGGUAUAUUAGCUGGUA [G21U C65G],0.257
17,GUCCUCUUUCACGUGCGCGUGAAAGAGAGAAGUGAACCAGAGAAACACGGGUUGUGGUAUAUUACCUGGUA [A49G C50G],0.166
18,GUCCUCUUUCACGUGCGCGUGAAAGAGAGAAGUGAACCAGAGGAACACACGUUGUGGUAUACUACCUGGUA [A43G U62C],0.162
19,GUCCUCCGUCACGUGCGCGUGAAAGAGAGAAGUGAACCAGAGAAACACACGUUGUGGUAUAUUACCUGGUA [U7C U8G],0.484
20,GUCCUCUUUCACGUGCGCGUGAAAGAGAGAAGUGAACCAGAGAAACAAACGUCGUGGUAUAUUACCUGGUA [C48A U53C],0.18
21,GUCCUCUUUCACGUGCGCGUGAAAGAGAGAAGUGAAGCAGAGAAACACACGUUGUGGUAUAUUACAUGGUA [C37G C66A],0.207
22,GUCCUCUUUCACGUGCGCGUGAACGAGAGAAGUGAACCAGAGAAACACACGUUGUGGCAUAUUACCUGGUA [A24C U58C],1.11
23,GUCCUCUUCCACGUGCGCGUGAAAGAGAGAAGUGAAUCAGAGAAACACACGUUGUGGUAUAUUACCUGGUA [U9C C37U],0.529
24,GUCCUCUUUCACGUGCGCGUGAAAGAGAGAAGUGAUCCAGAGAAACACUCGUUGUGGUAUAUUACCUGGUA [A36U A49U],0.124

# Source: the RNAGym collection of RNA variant scans (doi:10.7554/elife.80360)
